# B1: C5 (VHH)
# VHH: QVQLVESGGGSVQAGGSLTLSCVASGVTLGRHAIGWFRQAPGKERERVSCIRTFDGITSYVESTKGRFTISSNNAMNTVYLQMNSLKPEDTAVYFCALGVTAACSDNPYFWGQGTQVTVSS
# notes: also called VHH C5
# B2: VHH_H6 (VHH)
# VHH: QVQLVESGGGLVQPGGSLTLSCVASESSLAPYRVAWFRQAPGKEREGVSCISRDAHPTSTYYTASVKGRFTMSRDNAKNTVYLQMNSLKPSDTAVYYCATDLGGYCSDSNYPRAWWGQGTQVTVSS
# B3: VHH_H6-Fc (Fc fusion)
# chain: B2 VHH
# B4: F2-SUMO-C5-Fc (Fc fusion)
# chain: QVQLVESGGGLVQAGGSLRLACIASGRTFHSYVMAWFRQAPGKEREFVAAISWSSTPTYYGESVKGRFTISRDNAKNTVYLQMNRLKPEDTAVYFCAADRGESYYYTRPTEYEFWGQGTQVTVSSGSGSGSDSEVNQEAKPEVKPEVKPETHINLKVSDGSSEIFFKIKKTTPLRRLMEAFAKRQGKEMDSLRFLYDGIRIQADQTPEDLDMEDNDIIEAHREQIGSGSGSQVQLVESGGGSVQAGGSLTLSCVASGVTLGRHAIGWFRQAPGKERERVSCIRTFDGITSYVESTKGRFTISSNNAMNTVYLQMNSLKPEDTAVYFCALGVTAACSDNPYFWGQGTQVTVSS
# notes: also called F2-GSGSGS-SUMO-GSGSGS-C5
# B5: A8 (VHH)
# VHH: QVQLVESGGGLVQAGGSLRLSCAASGGTFSTAAMGWFRQAPGEERECVASIGWRGVRTWYADSVKGRFTISRDNPQNTVYLQMNNLKSGDTAVYYCAASVGNYGLPWAHFEYDFWGQGIQVTVSS
# notes: also called 2_A8
# What was measured:
# [1] = target: Spike protein on live SARS-CoV-2 Victoria strain (SARS-CoV-2 (Victoria), UniProt P0DTC2 14-1273); assay: cell-based or functional assay
# [2] = target: T1, SARS-CoV-2 receptor-binding domain (amino acids 330-532), prototypical Wuhan/Victoria (SARS-CoV-2 (Wuhan/Victoria), UniProt P0DTC2 330-532); assay: SPR, VHH analyte, biotinylated RBD ligand
# [3] = target: T1, SARS-CoV-2 receptor-binding domain …; assay: SPR, VHH analyte over immobilised RBD
# [4] = target: SARS-CoV-2 receptor-binding domain fused to hIgG1 Fc (SARS-CoV-2 (Wuhan/Victoria), UniProt P0DTC2 330-532); assay: SPR, VHH analyte, RBD-Fc ligand
# [5] = target: T1, SARS-CoV-2 receptor-binding domain …; assay: SPR, RBD analyte, VHH_H6-Fc ligand
# [6] = target: T1, SARS-CoV-2 receptor-binding domain …; assay: SPR, RBD binding kinetics
# [7] = target: T1, SARS-CoV-2 receptor-binding domain …; assay: SPR
# [8] = target: T1, SARS-CoV-2 receptor-binding domain …; assay: X-ray crystallography
binder,measurement,setting,value
B1,"IC50, neutralisation of SARS-CoV2, micro-titre neutralisation assay",[1],32 nM
same,Kd,[2],0.099 nM
same,T1/2,[2],12 min
same,Kd,[3],0.099 nM
same,T1/2,[3],12 min
B2,Kd,[4],0.472 nM
same,T1/2,[4],31 min
B3,Kd,[5],0.261 nM
B4,Kd,[6],0.00075 nM
same,T1/2,[6],660 min
same,koff,[6],1.7e-05 s⁻¹
same,kon,[6],2.3e+07 M⁻¹ s⁻¹
same,fold increase in affinity on combining the VHHs,[7],~85 fold
B5,binding result,[8],binds

# Reference: US20230374116A1 (ROSALIND FRANKLIN INSTITUTE, published 2023)
